Test results: the supplement of paper PMC12042874
± gives the uncertainty stated by the source.

Assay: amyloid nucleation score (Sup35N fusion, yeast selection) (log enrichment); library NNK1; higher = more nucleation; inactive = no reads after selection
Procedure, shortened: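 Sup35N was fused to peptides of 20 random codons and expressed in psi-negative yeast, which were induced with 100 μM copper sulfate for 24 hours and then grown on medium lacking adenine and uracil for 7 days at 30°C. Plasmid inserts from input and output were sequenced on Illumina. The nucleation score is the DiMSum log enrichment of output over input reads, centred on the mode score of non-aggregating sequences. Sequences with under 100 input reads were left out, and random libraries had three technical output replicates.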

Substance	amyloid nucleation score
ITKSRLWHDWLTRRVMTTDC	-0.241 ± 1.4
ITVGEYVNHCSG	0.224 ± 1.4
IVAVDFGLFRMRTIPRAAVS	-0.144 ± 1.6
IVDVVLSMGLLYLTSVNY	-0.369 ± 0.74
IVLMLCV	-0.097 ± 0.36
IVMFVGFCGENKLAWDSRRK	5.03 ± 0.05
IVNAGICPGNSRYSGNGATR	-0.162 ± 0.53
IVNNIVCSAGVDPFSQHCMD	1.84 ± 0.67
IVRVLCSLLIQFKVNAY	inactive
IVVFFAPDFCGRQLYDKSKS	4.85 ± 0.11
IVWVDLNRIGSCAGLGINYY	0.18 ± 0.41
IWCNMSFNIRV	4.4 ± 0.088
IWIMWGYRSLDTMLHS	0.047 ± 0.77
IWLRS	0.779 ± 0.62
IYCVGDFVP	-0.026 ± 0.35
IYEILKVTS	inactive
IYFHLGGCI	-0.376 ± 0.42
IYFQVSRLMSVRRAMKSPKP	-0.666 ± 1.4
IYLCCADFARIVMVTSTRWL	0.052 ± 0.5
IYLLLCLENRVDMLE	inactive
IYPILVMSASQA	0.549 ± 0.69
IYSARFIGVRPNYYCMDARP	-0.85 ± 0.88
IYTSLCQRGGMVMHESKYCC	0.624 ± 0.65
IYVYWSDISV	0.907 ± 0.42
KAFWSLCYVERGRWYGAVNA	0.128 ± 1

Substance	amyloid nucleation score
KAHRWDGRIFN	-1.27 ± 0.55
KAKTFI	0.268 ± 1.2
KALVADC	0.001 ± 0.34
KAVRMSNFD	0.223 ± 0.71
KCMFVESKSRDNCVMSNES	-0.055 ± 0.9
KCRGCSMMRAS	1.84 ± 0.5
KCSSLLSHMWLCITLVTVLA	0.357 ± 0.57
KCTCSVKCSCIFCFIICCVC	-1.2 ± 1.7
KDCCMLDIYVEAWSGSFGRK	1.44 ± 0.2
KDSGYMCWMGDLCVWSP	5.97 ± 0.097
KEFMRWHQTPRFVKKTHVRG	-0.834 ± 1.4
KELFLMPDGEPFMG	0.079 ± 0.61
KFGDPSRAAILNMSGSISDK	-0.189 ± 0.46
KFIFVGNGECMRPGCSDDSL	1.99 ± 0.38
KFIVVS	0.507 ± 0.62
KFSFCKS	0.207 ± 0.31
KFSNWTDV	-0.164 ± 1.1
KGLIKDNCNTSGGEFNCGY	-0.278 ± 0.21
KGQFF	0.835 ± 0.75
KGRSCLGRLRLVGQMRPKYN	0.366 ± 0.76
KHSNLYIFPGVYFFQITSLY	3.96 ± 0.088
KHYIKRASDGHAFSYVHLSL	0.068 ± 0.38
KIGLNCFE	inactive
KILTVHPSHNDPC	-1.32 ± 1.9
KITWDLF	0.759 ± 0.52

Substance	amyloid nucleation score
KKALTALM	0.822 ± 0.98
KKKYTEHISFTALHKLFTRR	0.189 ± 0.92
KKRICFMSLSQRWRSRTTCW	0.164 ± 0.3
KKVGRHFDLCALDRTQSGCW	-0.162 ± 0.39
KLAIYFILAACSRNVVED	0.768 ± 0.36
KLEMARAIKFFGYDTLETAF	1.1 ± 0.71
KLLPSKLCNASRFSFFYKES	-0.82 ± 0.81
KLLSGRLDTFSGGGDYMCPV	inactive
KLSGCMISKILFSPCWRD	5.896 ± 0.058
KLSVGLRYCRPATRTSAHVM	0.271 ± 0.35
KLVIETSPCVRSHVSLVQKR	-0.277 ± 0.26
KLYPFL	0.565 ± 0.32
KMATRINGWCDGASATTV	-0.154 ± 0.74
KMFTGNSEFFCFLTTVKLDR	-0.068 ± 0.61
KNFHELTVDYVCVLYREQLF	0.115 ± 0.26
KNKPL	2.72 ± 0.15
KNLGTRGHSMY	-0.164 ± 0.31
KNLKW	0.476 ± 0.97
KNLVWMDRVQFRLSWAHVRL	-1.38 ± 2.4
KNNIDIAFAV	-0.065 ± 0.98
KNSIYSCVTRTFSPMVLRYC	0.557 ± 0.54
KNYLLSLGVCNFQSYPHKCW	4.22 ± 0.16
KPDSMFDFER	-0.675 ± 1.3
KPLEDFVDYKMMLMIHEEVC	0.763 ± 0.97
KPTLGVILTTTTFTRSCLYY	-0.252 ± 0.73

Substance	amyloid nucleation score
KRDLPTQTTDNLACSWAPTQ	-0.884 ± 2.4
KRHVSGKVQMGWGVRRRPV	0.178 ± 0.72
KRLDVKMVLPEVRFRLDVSL	0.732 ± 0.27
KRNRYTKGTHHTSFMNFYFC	8.37 ± 0.066
KRPHGDH	0.416 ± 0.73
KSCDSESFYGDTRSFHTDSV	-1.5 ± 1.3
KSDNVVTRLRLLSAEVQW	-0.295 ± 0.98
KSKIQDLCCPSRPVVGMVCL	0.239 ± 0.43
KSQKG	0.008 ± 0.36
KSRAGMNKACTQLYPLV	-0.215 ± 0.34
KSRWHMLLNS	0.051 ± 0.72
KSVDFTYDEGRSTAVIVYHF	0.223 ± 0.29
KSVFIYLGMISLVG	0.352 ± 0.88
KSVVSFMTFPSLQEHKVVLI	0.33 ± 0.53
KTCYTVFSRPYENWS	0.625 ± 0.48
KTTCIDTIR	0.565 ± 0.43
KVCTHYSTHRWLSSQPSKVV	-0.696 ± 1.9
KVEWVSDTRVNLLGTFVLKA	1.18 ± 0.43
KVFLRMQRSSGTVKCKSQTE	-0.065 ± 0.41
KVFWLYPMNLS	0.278 ± 0.65
KVIFQVYYI	7.46 ± 0.047
KVIRAGHDVVPRTYRRRSRR	1.29 ± 0.58
KVKRFDGCSSRSKHVVTEI	4.13 ± 0.076
KVLGQGYERMDLFIVVFR	-0.357 ± 0.59
KVLGWNMGVHFNHGGRSFVM	0.461 ± 0.54

Substance	amyloid nucleation score
KVLILCAT	1.1 ± 0.62
KVPKRKITNFRGMSGFSRYR	0.985 ± 0.98
KVQYLFCNYLIKSYMMVQCN	0.477 ± 0.39
KVSVRYSNYSCVYFVYCRW	0.279 ± 0.27
KVVKCS	-0.97 ± 0.3
KVVSGA	0.879 ± 0.53
KVWSLKLSFGSLNMPMGYV	0.399 ± 0.26
KVYTWVPPTMNYRMNLFIVR	0.036 ± 0.19
KWVHEIRSSMVCVYLAGNSR	0.677 ± 0.79
KYASVGASFVWC	0.102 ± 0.34
KYHRFFAG	-1.02 ± 1.8
KYPYLYLPIRMLNRQHARVG	0.449 ± 0.62
KYSEDLIRQEDVVRYMGTMS	-0.056 ± 0.24
LADGLTVRSKYYISVNSVGS	-0.16 ± 0.4
LAELWECDKSLKSPGAYWVL	1.49 ± 0.73
LAEVQRKTR	-0.291 ± 0.59
LAFGFTSWS	0.49 ± 0.38
LAIDNDSWFVETNYNFKFDV	-0.438 ± 0.57
LAITDKPNANARRPPTPVLY	0.623 ± 0.51
LAKATGHVVCMSRVRRPVGQ	inactive
LAREAGR	inactive
LASLDLCVISLMNNHVDRTD	0.94 ± 0.29
LASTVSDWN	0.32 ± 0.39
LAVERGHCIQVRGLKCLIES	1.66 ± 0.47
LCALSEVLVLCDSY	0.29 ± 0.96

Substance	amyloid nucleation score
LCAMIPAVGRYWSCVVGHSV	-0.013 ± 1.6
LCDYKRPCMTMYNHHELLII	0.005 ± 0.47
LCEMLF	-0.202 ± 0.61
LCGSGGLMCRQGHYAEMGGC	-0.287 ± 1.1
LCIMF	-0.446 ± 0.69
LCINLVYRKISPALRF	-0.859 ± 0.75
LCKRNVKCQFL	0.192 ± 0.59
LCLISDMPKHFGCGYTKCSL	-1.17 ± 0.63
LCLRVEGGNKPTEHCITSPT	-0.234 ± 0.43
LCLYGVC	-0.164 ± 0.56
LCQVTG	0.391 ± 0.48
LCSMTKTNVVRSECRVLTRR	1.86 ± 0.65
LCTDCLSGTVSDCRMFSHNR	-0.592 ± 0.75
LCVNERVHQSLSRQRIPNCL	1.26 ± 0.61
LCWRYMVLRMNFFAADLYYN	1.39 ± 0.32
LDAGH	-1.56 ± 1.8
LDARKKARMWRNTIDMDELV	inactive
LDCDSSLGRN	0.722 ± 0.39
LDCELLQRNFSNTKGHPIYR	0.052 ± 0.35
LDGVFNTTIATVNSFREYLM	0.132 ± 0.48
LDHNGEGFFFKGSLFVNCLA	-0.912 ± 1.6
LDILDLVRTNVIRTKKPFEI	-0.348 ± 0.83
LDKYLHLRLWHTVFWYSTIK	inactive
LDNIMVCNYAE	inactive
LDQIQIFSEIGVFRLVCQHI	-0.164 ± 0.64

Substance	amyloid nucleation score
LDRVWMYTIRLLQMKAMVLP	0.497 ± 0.64
LDSGQAPSMLLWGSNYWEKL	0.808 ± 0.9
LDSTLSLQ	0.071 ± 0.3
LDTIVIVWRNCLRYKFHLCL	-0.057 ± 0.84
LEALGYLWDKWAYYAMVMRS	0.836 ± 0.97
LERKMYRNISSLTVVGYTMS	-0.095 ± 0.51
LFFQPLVLFKKRLEYCFRLL	0.2 ± 0.6
LFGKRCGHGQCQDHWKAVCV	-0.008 ± 0.61
LFHRIV	-0.353 ± 0.54
LFILPCQVNLHECMVLCLFE	5.91 ± 0.06
LFLCRILYCLWVNVFLLGHE	0.367 ± 0.32
LFRDACLGMR	-0.494 ± 0.48
LFSRFCTTVCKSTFRFDTR	1.65 ± 0.76
LFSRVFSAANVIRHNFLFME	0.746 ± 0.9
LFVMSWYNYAVKFVAINTIT	-0.031 ± 0.24
LFVNM	inactive
LFWASVSSWYDGEGVGKPDV	0.134 ± 0.47
LGAQGLFVYSLLCQT	-0.126 ± 0.68
LGESREVSGHDNRCWAFQ	0.594 ± 0.49
LGESTGIFFYGEIRPYLNGS	-0.148 ± 0.64
LGKNFLYISCSLTDQGAGLH	2.7 ± 0.16
LGMKSVKWL	0.345 ± 0.53
LGMWRCKPRTTLAWSYLDPV	0.179 ± 0.71
LGQLFHGGCD	0.3 ± 0.43
LGRGTKMLLKVYTVRTSNYR	0.592 ± 0.58
